Where no end group is shown, it is not given here.
Biological target: endogenous VIP receptor of SUP-T1 cells (human)
Test: cell-based or functional assay

## HSDAVFTDNYTRLRKQMAVKKYLNSILN-NH2 [VIP(1-28)-NH2]
  cAMP Productivity in SUP-T1 Cells, Activity Intensity (%) relative to native VIP: 100%

— patent US20130123460A1 (SANWA KAGAKU KENKYUSHO, published 2013)
